# Test results reported in US20250155438A1 (KING ABDULAZIZ UNIVERSITY, published 2025).
# B1: anti-NCAP-2 nanobody (VHH, not shown: small tags and cut ends)
# VHH: QVQLVESGGALMQAGGSLRLSCAVSGIRLGYYTIAWFRQAPGKEREGISCISRSEGSTYYADSVKGRFTISTENAENTVYLQMNSLKPDDTAVYYCAVDFVPASHCAVANTKGYDYWGQGTQVTVSS
# notes: also called N Capsid nanobody NCAP-2
# Biological target: T1, SARS-CoV-2 nucleocapsid protein (SARS-CoV-2, UniProt P0DTC9 1-419)
# T1 construct: also called NCAP; N-capsid
binder,measurement,value
B1,binding result,binds
